According to publication PMC11032447, “A hydrophobic groove in secretagogin allows for alternate interactions with SNAP-25 and syntaxin-4 in endocrine tissues” (Proceedings of the National Academy of Sciences of the …, 2024):
No end group written: not given here.

T1: human secretagogin (human, UniProt O76038 1-276)
T1 construct: human secretagogin; construct in Dataset S1; Construct limits are in Dataset S1; also called recombinant human secretagogin; source: recombinant; coexpressed and copurified with the GFP fusion, or purified
T1 sequence (looked up): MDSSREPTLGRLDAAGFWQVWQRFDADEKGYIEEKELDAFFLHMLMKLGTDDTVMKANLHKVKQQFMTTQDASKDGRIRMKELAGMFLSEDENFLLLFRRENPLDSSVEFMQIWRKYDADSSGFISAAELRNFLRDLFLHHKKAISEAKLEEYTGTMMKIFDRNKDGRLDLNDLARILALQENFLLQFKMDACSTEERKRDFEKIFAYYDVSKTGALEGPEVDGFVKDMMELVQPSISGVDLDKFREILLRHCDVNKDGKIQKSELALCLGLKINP

B1: mouse secretagogin (natural protein, UniProt Q91WD9 1-276, looked up)
chain: MDNARRKTPARLDAACFWQIWQRFDKEEKGYIRETELDAFFDHLLAKSGTEDTLMEENVQKVKEQLMTSHNVSKEGRILMKELASMFLSEDENFLLFFRLETPLDNSVEFMQIWRKYDADSSGFISAAELCNFLRDLFLHHKKNISEAELEEYTSTMMKIFDKNKDGRLDLNDLARILALQENFLLQFKMDASSTEERKRDFEKIFAHYDVSKTGALEGPEVDGFVKDMMELVQPSISGVDLDKFREILLRHCDVNKDGKIQKSELALCLGLKINP
notes: mouse secretagogin, the three-domain protein (domains A, B, C); construct in Dataset S1; also called mSCGN; SCGN; source: recombinant, produced and purified; E. coli BL21(DE3) named for the pull-down constructs
B2: Habc domain of mouse syntaxin-4 (domain or fragment, UniProt P70452 32-170, looked up)
chain: ARLGSPDDEFFQKVQTIRQTMAKLESKVRELEKQQVTILATPLPEESMKQGLQNLREEIKQLGREVRAQLKAIEPQKEEADENYNSVNTRMKKTQHGVLSQQFVELINKCNSMQSEYREKNVERIRRQLKITNAGMVSD
notes: mouse syntaxin-4, globular Habc domain; limits in Dataset S1; The His6 tag is told for the pull-down baits; a Habc with the N-peptide is m36; also called Habc module of syntaxin-4; syntaxin-4-derived Habc module; source: recombinant, produced and purified; E. coli BL21(DE3) named for the pull-down constructs

Assays:
[1] = target: T1, human secretagogin; assay: co-expression and co-purification + SEC; GFP-peptide fusion coexpressed with human secretagogin; in the presence of Ca2+; conditions: partners not purified
[2] = target: T2, C-terminal SNARE domain of mouse SNAP-25 (mouse, UniProt P60879 140-206); assay: ITC; in the presence of Ca2+; conditions: both partners purified
T2 construct: mouse SNAP-25, C-terminal SNARE domain (helix), identical in SNAP25-1 and SNAP25-2; limits in Dataset S1; The pull-down fragments are said to derive from isoform-2; also called SNAP-25c; SNAP-25C; source: recombinant; E. coli BL21(DE3) named for the pull-down constructs
T2 sequence (P60879 140-206): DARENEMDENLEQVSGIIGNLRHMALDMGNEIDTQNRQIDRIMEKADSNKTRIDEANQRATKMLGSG

[3] = target: B2; assay: ITC; in the presence of Ca2+; conditions: both partners purified
[4] = target: B1; assay: ITC; in the presence of Ca2+; conditions: both partners purified
[5] = target: B1; assay: ITC; GFP-fusion peptides of the syntaxin-4 Hb helix; the sentence names no method, the values are said to stand in SI Fig. S3E and SI Table S1 (ITC data); conditions: both partners purified

Row | Kd [4] [nM] | Kd [5] [nM] | Binder | other results
1 | – | – | GIIGNLRHMALDMGNEIDTQNRQID (SNAP-25 stretch 155-179 (mouse and human identical), attached to the C-terminus of GFP; GFP serves as crystallization chaperon; also called GFP-SNAP-25c chimera; GFP-linked SNAP-25-peptide; source: coexpressed and copurified with secretagogin; not shown: GFP, N-terminal, kept) [GFP carrying the SNAP-25-derived peptide (AA155-179) at its C-terminus] | binding result [1]: binds
2 | – | – | B1 | stoichiometry N [2]: 1; stoichiometry N [3]: 1
3 | ~7000 | – | ARLGSPDDEFFQKVQTIRQTMAKLESKVRELEKQQVTILATPLPEESMK (domain or fragment, UniProt P70452 32-80, looked up, limits in Dataset S1; Used as bait in the pull-down; source: recombinant; E. coli BL21(DE3) named for the pull-down constructs) [helix-a of the Habc domain of mouse syntaxin-4] | –
4 | ~46.6 | – | GIIGNLRHMALDMGNEIDTQNRQID (mouse SNAP-25, stretch of the C-terminal helix; Tags of the deletion constructs are in Dataset S1; also called mSNAP-25^14−33; SNAP-25^14–33; source: recombinant deletion construct of SNAP-25c) [mouse SNAP-25 peptide 155-179] | –
5 | ~14000 | – | B2 | –
6 | – | 826 | GLQNLREEIKQLGREVRAQLKAIEPQKE (also: fused as C-terminal tag to GFP, mouse syntaxin-4, stretch of the Hb helix, C-terminal tag on GFP; A linker stands between GFP and the peptide; also called GFP-syntaxin-4-peptide; chimeric GFP-syntaxin-4 (STX4)-derived peptide; source: recombinant GFP fusion; complex with secretagogin isolated by preparative SEC; not shown: GFP, N-terminal, kept) [GFPmSTX4Hb10] | –
7 | ~209 | – | TPLPEESMKQGLQNLREEIKQLGREVRAQLKAIEPQKE (domain or fragment, UniProt P70452 72-109, looked up, limits in Dataset S1; Used as bait in the pull-down; also called Hb; syntaxin-4 Hb; source: recombinant; E. coli BL21(DE3) named for the pull-down constructs) [helix-b of the Habc domain of mouse syntaxin-4] | –
8 | – | 275 | TPLPEESMKQGLQNLREEIKQLGREVRAQLKAIEPQKE (also: fused as C-terminal tag to GFP, mouse syntaxin-4, stretch of the Hb helix, C-terminal tag on GFP; source: recombinant GFP fusion; not shown: GFP, N-terminal, kept) [GFPmSTX4Hb7] | –
9 | – | 541 | ESMKQGLQNLREEIKQLGREVRAQLKAIEPQKE (also: fused as C-terminal tag to GFP, mouse syntaxin-4, stretch of the Hb helix, C-terminal tag on GFP; source: recombinant GFP fusion; not shown: GFP, N-terminal, kept) [GFPmSTX4Hb9] | –
